Assay results: patent US20230295258A1 (KANAPH THERAPEUTICS, published 2023)

B1: T1.02 (anti-hu FAP/hu IL-12 mut1, hu IgG1 DANG) (bispecific antibody)
heavy: QVQLVQSGAEVKKPGASVKVSCKTSRYTFTEYTIHWVRQAPGQRLEWIGGINPNNGIPNYNQKFKGRVTITVDTSASTAYMELSSLRSEDTAVYYCARRRIAYGYDEGHAMDYWGQGTLVTVSSASTKGPSVFPLAPSSKSTSGGTAALGCLVKDYFPEPVTVSWNSGALTSGVHTFPAVLQSSGLYSLSSVVTVPSSSLGTQTYICNVNHKPSNTKVDKKVEPKSCDKTHTCPPCPAPELLGGPSVFLFPPKPKDTLMISRTPEVTCVVVAVSHEDPEVKFNWYVDGVEVHNAKTKPREEQYGSTYRVVSVLTVLHQDWLNGKEYKCKVSNKALPAPIEKTISKAKGQPREPQVYTLPPSRDELTKNQVSLWCLVKGFYPSDIAVEWESNGQPENNYKTTPPVLDSDGSFFLYSKLTVDKSRWQQGNVFSCSVMHEALHNHYTQKSLSLSPGK
light: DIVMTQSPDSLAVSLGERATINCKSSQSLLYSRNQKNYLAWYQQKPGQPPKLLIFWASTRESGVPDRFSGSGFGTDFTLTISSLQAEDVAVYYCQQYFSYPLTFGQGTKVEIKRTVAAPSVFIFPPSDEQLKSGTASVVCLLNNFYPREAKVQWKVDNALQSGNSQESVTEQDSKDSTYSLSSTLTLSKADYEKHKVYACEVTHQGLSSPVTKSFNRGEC
chain: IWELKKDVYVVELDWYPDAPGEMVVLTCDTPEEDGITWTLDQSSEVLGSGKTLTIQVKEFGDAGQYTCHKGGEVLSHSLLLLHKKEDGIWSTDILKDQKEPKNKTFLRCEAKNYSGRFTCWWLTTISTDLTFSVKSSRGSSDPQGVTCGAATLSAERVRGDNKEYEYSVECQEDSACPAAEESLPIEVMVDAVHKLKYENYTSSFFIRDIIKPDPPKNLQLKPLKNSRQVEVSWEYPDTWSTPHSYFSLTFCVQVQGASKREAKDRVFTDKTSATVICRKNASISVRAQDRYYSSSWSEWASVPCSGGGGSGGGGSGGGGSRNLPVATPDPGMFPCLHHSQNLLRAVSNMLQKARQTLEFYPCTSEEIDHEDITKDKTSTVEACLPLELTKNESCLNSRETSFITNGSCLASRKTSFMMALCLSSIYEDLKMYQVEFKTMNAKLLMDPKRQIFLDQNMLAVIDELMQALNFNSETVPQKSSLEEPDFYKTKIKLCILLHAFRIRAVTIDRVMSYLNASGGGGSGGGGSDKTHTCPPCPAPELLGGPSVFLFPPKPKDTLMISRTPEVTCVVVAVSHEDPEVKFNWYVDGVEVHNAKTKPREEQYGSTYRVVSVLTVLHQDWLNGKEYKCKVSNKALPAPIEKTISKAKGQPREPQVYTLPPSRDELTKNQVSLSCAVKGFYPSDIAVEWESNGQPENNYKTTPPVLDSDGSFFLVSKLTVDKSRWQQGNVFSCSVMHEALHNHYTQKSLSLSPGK
B2: T1.03 (anti-hu FAP/hu IL-12 mut2, hu IgG1 DANG) (bispecific antibody)
heavy: B1 heavy
light: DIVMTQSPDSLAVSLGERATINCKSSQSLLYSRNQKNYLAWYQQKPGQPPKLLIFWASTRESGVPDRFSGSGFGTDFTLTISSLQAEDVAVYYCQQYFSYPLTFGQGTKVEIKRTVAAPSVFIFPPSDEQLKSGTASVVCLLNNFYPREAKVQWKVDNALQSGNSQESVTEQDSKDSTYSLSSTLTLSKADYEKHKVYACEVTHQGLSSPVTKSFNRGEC
chain: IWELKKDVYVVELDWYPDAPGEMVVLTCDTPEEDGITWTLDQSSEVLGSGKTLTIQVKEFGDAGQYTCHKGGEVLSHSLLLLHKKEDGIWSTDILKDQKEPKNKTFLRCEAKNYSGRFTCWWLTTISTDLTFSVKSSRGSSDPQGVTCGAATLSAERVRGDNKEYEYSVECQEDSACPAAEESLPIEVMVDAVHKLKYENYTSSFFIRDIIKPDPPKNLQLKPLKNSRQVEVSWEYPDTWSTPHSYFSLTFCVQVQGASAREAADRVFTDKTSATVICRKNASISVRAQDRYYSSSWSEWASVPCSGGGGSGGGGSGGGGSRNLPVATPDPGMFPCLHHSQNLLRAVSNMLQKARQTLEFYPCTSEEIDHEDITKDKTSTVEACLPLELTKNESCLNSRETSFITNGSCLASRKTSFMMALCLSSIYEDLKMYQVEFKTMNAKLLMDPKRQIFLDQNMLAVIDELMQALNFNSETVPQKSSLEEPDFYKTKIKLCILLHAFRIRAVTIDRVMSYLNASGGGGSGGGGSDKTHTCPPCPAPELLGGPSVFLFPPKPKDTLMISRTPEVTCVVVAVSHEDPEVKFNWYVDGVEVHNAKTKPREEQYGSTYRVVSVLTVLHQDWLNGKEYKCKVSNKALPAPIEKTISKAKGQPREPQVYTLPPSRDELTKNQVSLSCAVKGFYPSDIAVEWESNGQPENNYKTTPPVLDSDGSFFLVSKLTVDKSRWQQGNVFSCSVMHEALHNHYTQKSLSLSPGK
B3: T1.01 (anti-hu FAP/hu IL-12, hu IgG1 DANG) (bispecific antibody)
heavy: B1 heavy
light: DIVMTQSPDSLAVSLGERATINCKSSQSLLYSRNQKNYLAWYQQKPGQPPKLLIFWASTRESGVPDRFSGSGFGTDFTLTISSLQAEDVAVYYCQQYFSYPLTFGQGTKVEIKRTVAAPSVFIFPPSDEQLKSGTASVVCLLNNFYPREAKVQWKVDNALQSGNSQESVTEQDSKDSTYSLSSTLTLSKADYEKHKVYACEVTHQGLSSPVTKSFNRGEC
chain: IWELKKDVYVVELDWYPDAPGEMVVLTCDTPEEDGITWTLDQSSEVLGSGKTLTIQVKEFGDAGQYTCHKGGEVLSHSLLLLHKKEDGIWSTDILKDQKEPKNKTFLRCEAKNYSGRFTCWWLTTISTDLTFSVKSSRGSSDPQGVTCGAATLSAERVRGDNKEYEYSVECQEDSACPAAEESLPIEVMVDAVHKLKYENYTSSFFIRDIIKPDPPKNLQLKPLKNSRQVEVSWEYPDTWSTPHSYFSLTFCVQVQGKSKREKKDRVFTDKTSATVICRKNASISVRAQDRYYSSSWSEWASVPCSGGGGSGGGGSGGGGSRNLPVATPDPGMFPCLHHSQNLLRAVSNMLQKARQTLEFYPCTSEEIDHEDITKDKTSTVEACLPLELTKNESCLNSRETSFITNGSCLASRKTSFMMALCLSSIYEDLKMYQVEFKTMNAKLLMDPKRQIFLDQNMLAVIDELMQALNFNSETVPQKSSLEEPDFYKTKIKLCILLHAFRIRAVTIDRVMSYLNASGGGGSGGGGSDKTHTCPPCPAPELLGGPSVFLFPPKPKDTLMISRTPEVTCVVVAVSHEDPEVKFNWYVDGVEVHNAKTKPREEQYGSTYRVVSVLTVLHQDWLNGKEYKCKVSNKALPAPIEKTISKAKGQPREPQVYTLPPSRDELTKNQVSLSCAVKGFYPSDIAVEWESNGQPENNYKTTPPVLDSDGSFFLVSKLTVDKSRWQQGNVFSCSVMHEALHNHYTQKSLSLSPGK

These binders were tested against IL-12 receptor of human T cells (human, UniProt P42701 24-662; Q99665 24-862) (assay: cell-based or functional assay).
Sequence of IL-12 receptor of human T cells (Q99665 24-862, chain 2 of 2, other chains not shown): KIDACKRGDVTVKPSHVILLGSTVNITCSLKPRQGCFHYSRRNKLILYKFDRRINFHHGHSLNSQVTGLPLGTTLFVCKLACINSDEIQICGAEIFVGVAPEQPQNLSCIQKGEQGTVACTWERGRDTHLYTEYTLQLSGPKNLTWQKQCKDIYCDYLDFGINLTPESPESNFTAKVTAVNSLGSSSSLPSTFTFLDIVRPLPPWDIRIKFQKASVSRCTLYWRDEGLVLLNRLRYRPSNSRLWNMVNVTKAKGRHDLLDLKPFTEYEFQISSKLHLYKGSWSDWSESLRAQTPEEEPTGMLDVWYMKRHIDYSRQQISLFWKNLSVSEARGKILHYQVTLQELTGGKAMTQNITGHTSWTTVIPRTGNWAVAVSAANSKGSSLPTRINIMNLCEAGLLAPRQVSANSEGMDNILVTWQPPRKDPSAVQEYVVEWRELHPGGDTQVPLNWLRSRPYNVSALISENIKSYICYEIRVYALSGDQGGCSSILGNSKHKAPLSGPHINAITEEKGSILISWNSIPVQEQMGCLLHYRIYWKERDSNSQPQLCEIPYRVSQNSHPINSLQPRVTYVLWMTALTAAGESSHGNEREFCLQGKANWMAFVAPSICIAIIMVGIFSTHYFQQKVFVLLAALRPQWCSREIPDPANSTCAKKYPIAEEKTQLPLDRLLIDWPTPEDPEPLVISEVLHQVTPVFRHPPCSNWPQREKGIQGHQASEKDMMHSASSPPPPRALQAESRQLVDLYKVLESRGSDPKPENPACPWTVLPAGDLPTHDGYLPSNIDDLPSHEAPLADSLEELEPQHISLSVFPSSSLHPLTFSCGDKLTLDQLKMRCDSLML

Going from B1 to B2, the “change of the p-STAT4 EC50 in human T cells with low molecular weight heparin against without” value falls from 5.5 times to 4 times.

In the case of B3, the “change of the p-STAT4 EC50 in human T cells with low molecular weight heparin against without” value is reported as 9.4 times.

Compared with B1, B2 is 2.6-fold higher in “half maximal effective concentration (EC50) of p-STAT4 (Tyr693) in activated human T cells, AlphaLISA” value: 0.0565 nM for the first, 0.147 nM for the second.

B3 was tested, and the “half maximal effective concentration (EC50) of p-STAT4 (Tyr693) in activated human T cells, AlphaLISA” value was 0.0145 nM.
